The chains are these.
B1: TPR t1 (parent)
chain: GACCAAUCUGCCCUCAGAGCUCGAGAACAUCUUCGGAUGCAGAGGAGGCAGGCUUCGGUGGCGCGAUAGCGCCAACGUCCUCAACCUCCAAUGCAUCCCACCACAUGAUGAUGCCUGAAGAGCCUUGGUUUUUUG

In the data set the parent is B1. The experiment in a line: polymerase ribozyme fitness, log enrichment relative to wild type (log ratio); higher = more active; in vitro selection for triplet polymerase activity. Put shortly: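 For each subunit of a heterodimeric triplet polymerase ribozyme, a mutant library was built by PCR and transcribed, then taken through a single in vitro selection round in triplicate. Selection involved annealing to a biotinylated primer, the partner subunit and triplets, incubation frozen at −7 °C, gel excision of extended constructs, capture on streptavidin beads and RT-PCR. Genotypes were retained after Illumina sequencing of inputs and outputs only with ≥10 input reads and ≥1 read in each output. Fitness is defined as the logarithm of a genotype's enrichment relative to wild-type enrichment, using inverse-variance-weighted averages across replicates, with the logarithm taken to base 2.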
Take G69U C98G: the “polymerase ribozyme fitness (log ratio)” value was -2.4.
The figure for G69U C82U A111C U112A G122C is -0.869; for G69C U106C it is -1.22; for G69U C86G G120C it is 0.63.
As for G69U C73U G110A C123A, the “polymerase ribozyme fitness (log ratio)” value is -0.661.
G69C U78G C115U U125A: the “polymerase ribozyme fitness (log ratio)” value is -5.54.
On to G69C C104A U106C U129A, for which the “polymerase ribozyme fitness (log ratio)” value is -5.53.
Next, G69U C123G: 2.28.
On to G69U U81C G120C G122A G128A, for which the “polymerase ribozyme fitness (log ratio)” value is -3.32.
Next, G69U C85G: -0.537; G69U G107C: -4.24; G69U C80U C102U C104U G120C: 1.02.
The figure for G69C C89G is -3.31.
For the variant G69C G71U, the “polymerase ribozyme fitness (log ratio)” value is -4.82.
For G69U C88A, the “polymerase ribozyme fitness (log ratio)” value worked out at 0.231.
The figure for G69C A111C is -0.894.
The figure for G69U C79A C88G is -0.43; for G69U C99A A111C it is -2.81; for G69U C104U G127A it is -0.309.
For G69U G135C, the “polymerase ribozyme fitness (log ratio)” value was determined as 1.06.
The figure for G69A U81G is -6.79.
The figure for G69A U81C is -2.71; for G69U C89A it is -0.471.
The figure for G69C G135C is -1.59; for G69U U106C A121U it is 2.34.
As for G69C U87A, the “polymerase ribozyme fitness (log ratio)” value was -1.98.
As for G69U A119G G122C, the “polymerase ribozyme fitness (log ratio)” value was -2.33.
As for G69C A105U U112G, the “polymerase ribozyme fitness (log ratio)” value was -3.4.
Next, G69U A84C C124A: 1.33; G69C C104A: -1.87; G69C C104U: -1.49.
The figure for G69U G93C is -0.253; for G69C U92C it is -2.26.
As for G69C U92G, the “polymerase ribozyme fitness (log ratio)” value was -4.02.
As to G69U G110C U125C, the “polymerase ribozyme fitness (log ratio)” value was -1.52.
Next, G69A G113C: -3.4; G69A G113U: -5.37; G69C A83G G120C: -1.54.
On to G69C U92A U133G, for which the “polymerase ribozyme fitness (log ratio)” value is -4.36.
Take G69C A84C U125A: the “polymerase ribozyme fitness (log ratio)” value was -2.42.
G69U U87C: the “polymerase ribozyme fitness (log ratio)” value was 0.421.
As to G69C G110A, the “polymerase ribozyme fitness (log ratio)” value was -2.04.
Next, G69U C101U U126C: -0.166.
Next, G69U G122A: 0.377.
On to G69U G71U G120U U126A, for which the “polymerase ribozyme fitness (log ratio)” value was -0.887.
For G69U C85A C101A, the “polymerase ribozyme fitness (log ratio)” value was -1.66.
Take G69U C98U U112G: the “polymerase ribozyme fitness (log ratio)” value was -1.16.
The figure for G69C U131A is -2.41; for G69U A95U G122A it is -0.876.
Regarding G69U U78C, the “polymerase ribozyme fitness (log ratio)” value stood at 0.191.
G69A G117U: the “polymerase ribozyme fitness (log ratio)” value is -5.17.
As for G69C C114A, the “polymerase ribozyme fitness (log ratio)” value is -2.28.
Next, G69A U78G: -2.63; G69A U78A: -2.94.
The figure for G69A U78C is -2.5; for G69C C70A G117A A121G it is -6.08; for G69U C80G C98A U130G it is -7.2.
For G69U A83U A95U U106A, the “polymerase ribozyme fitness (log ratio)” value was 0.29.
In the case of G69C G93C G122A, the “polymerase ribozyme fitness (log ratio)” value is -4.01.
Next, G69U G71C: -2.52; G69A U109A: -5.09.
Next, G69C C94U U96A: -2.83; G69C A84C G128C: -4.09; G69U C88U G120U: 0.599.
Next, G69C C98A C104A C115U: -7.27.
G69C C72U U92C C101U G117U: the “polymerase ribozyme fitness (log ratio)” value is -5.11.
Next, G69U C86U C101U C102U G120C: 0.552; G69U C99A G127C: -3.98.
With G69U U81G A103U, the “polymerase ribozyme fitness (log ratio)” value is -6.76.
The figure for G69U C114U U130G is -1.33; for G69A G122A it is -2.53; for G69C C99U it is -3.79.
In the case of G69C C73A G122A C124G, the “polymerase ribozyme fitness (log ratio)” value is -0.387.
The figure for G69C U96C is -2.24; for G69U U109A it is -2.79.
Consider G69U U109C, for which the “polymerase ribozyme fitness (log ratio)” value was -0.222.
Next, G69U G117C U130C: -2.79; G69A U87G: -2.08.
The figure for G69A U87C is -2.12.
Consider G69U C104A U116A C124U, for which the “polymerase ribozyme fitness (log ratio)” value is -0.357.
Next, G69U C72U U87A G113A: -1.35; G69C C99U G120U: -5.41; G69U G71U G117A: -2.19.
Next, G69C C123U: -0.24.
The figure for G69C G117C is -3.97.
With G69C G117U, the “polymerase ribozyme fitness (log ratio)” value was -3.02.
The figure for G69U A84U A90U is -0.387.
The figure for G69C A90U is -2.68; for G69C C102U A108C A111G C115U U130A it is -6.19; for G69U A75U C101U G113C U129A it is -2.36.
Next, G69A U112A: -2.26; G69A U112C: -0.685.
On to G69U G93U G110A, for which the “polymerase ribozyme fitness (log ratio)” value was -0.494.
The figure for G69U C99A U130G is -3.92.
As for G69C U109A, the “polymerase ribozyme fitness (log ratio)” value is -8.01.
Regarding G69U A74C C104U, the “polymerase ribozyme fitness (log ratio)” value was 0.0316.
The figure for G69U A95G G135U is -0.343; for G69U G117U it is -1.07; for G69U C86A C104U it is 0.251.
G69C A121G: the “polymerase ribozyme fitness (log ratio)” value is 0.734.
The figure for G69U C86U is -0.254; for G69U U78G U112A U133C it is 3.16; for G69C C101G G122A U125A it is -3.83.
For G69U G71A A84C, the “polymerase ribozyme fitness (log ratio)” value is -4.28.
As for G69U U78G U112A, the “polymerase ribozyme fitness (log ratio)” value is 2.31.
Next, G69C C124G: 0.351; G69C C70U: -3.87; G69U C98U U129C: -1.15.
G69U C101A: the “polymerase ribozyme fitness (log ratio)” value was -0.434.
As for G69C C79G U109G, the “polymerase ribozyme fitness (log ratio)” value is -6.78.
Next, G69A G127A: -4.05.
Turning to G69C G77A C88A G127A U129A, the “polymerase ribozyme fitness (log ratio)” value is -5.53.
As for G69A U129A, the “polymerase ribozyme fitness (log ratio)” value was -3.9.
Take G69C C85U C86A: the “polymerase ribozyme fitness (log ratio)” value is -3.64.
Next, G69U C94U G120A: 1.2; G69C C102U: -3.02.
With G69C A83G, the “polymerase ribozyme fitness (log ratio)” value was -2.31.
Regarding G69U C114U, the “polymerase ribozyme fitness (log ratio)” value is -0.582.
Next, G69U G110A: 0.0569.
Next, G69C C88G: -2.63; G69U C104U C115U: 1.66; G69C C115G: -3.08.
The figure for G69C G93U is -2.49.
Turning to G69C G93C, the “polymerase ribozyme fitness (log ratio)” value is -3.05.
For G69U G128C, the “polymerase ribozyme fitness (log ratio)” value was -1.01.
Take G69U A74U C80U: the “polymerase ribozyme fitness (log ratio)” value is -0.977.
Regarding G69C A119G, the “polymerase ribozyme fitness (log ratio)” value is -0.227.
As for G69C A119U, the “polymerase ribozyme fitness (log ratio)” value is -1.32.
Next, G69C G77A C98U U126C U130C: -3.72; G69U C73U: 0.225; G69U U78C C88U: 0.314.
Next, G69C C70U C80U U112G G117U A118U: -7.19; G69C U112A: -0.545.
Next, G69U G113A: -0.285; G69U G113C: -0.897.
Regarding G69C U132A, the “polymerase ribozyme fitness (log ratio)” value was -2.03.
Next, G69U A119U: 0.577; G69A U130C: -3.09; G69A U130G: -2.69.
In the case of G69A U130A, the “polymerase ribozyme fitness (log ratio)” value is -3.11.
Take G69U C102G A119G: the “polymerase ribozyme fitness (log ratio)” value is -2.01.
Next, G69C A84G A118U G127A: -2.68; G69C U81C: -1.86.
The figure for G69U A74U G135C is -0.511.
For the variant G69C A91U, the “polymerase ribozyme fitness (log ratio)” value is -3.08.
As to G69U A118C, the “polymerase ribozyme fitness (log ratio)” value was -2.03.
With G69C C85A G117C A121C, the “polymerase ribozyme fitness (log ratio)” value is -5.54.
Regarding G69U C73G C80A, the “polymerase ribozyme fitness (log ratio)” value is -7.09.
The figure for G69U C72U C79U is -0.113.
Regarding G69C C82U U126G, the “polymerase ribozyme fitness (log ratio)” value is -3.1.
The figure for G69C U133G is -1.57; for G69C A91C G113U it is -4.43; for G69U C72G it is -1.29.
The figure for G69C C79U G117U U134G is -1.73; for G69U A84C it is 0.129.
As to G69U A84U, the “polymerase ribozyme fitness (log ratio)” value amounted to 0.757.
As to G69U C79U A111G U129C U133A, the “polymerase ribozyme fitness (log ratio)” value was -0.673.
Regarding G69A U106A, the “polymerase ribozyme fitness (log ratio)” value was -2.76.
Take G69A U106C: the “polymerase ribozyme fitness (log ratio)” value is -3.42.
Consider G69U G120A G128C, for which the “polymerase ribozyme fitness (log ratio)” value was -1.25.
For the variant G69C C86U, the “polymerase ribozyme fitness (log ratio)” value was -1.37.
The figure for G69U C97G is -3.33; for G69U C97U it is 0.163; for G69U G120U U132C it is 1.03.
Next, G69U C115U: -0.095; G69U C124U: 2.41; G69A U96G A121C: -1.72.

The record behind these values is the RNAGym collection of RNA variant scans (doi:10.1073/pnas.2313332121).
